In US20100196266A1 (published 2010):
One block for each binder: values may come before it.

Experiments:
[1] = target: T1, human CD20 on cells (human, UniProt P11836 1-297); assay: indirect FACS, FITC-GAH Fc, Daudi cells; none 3.1
T1 construct: whole, on cells
T1 sequence (looked up): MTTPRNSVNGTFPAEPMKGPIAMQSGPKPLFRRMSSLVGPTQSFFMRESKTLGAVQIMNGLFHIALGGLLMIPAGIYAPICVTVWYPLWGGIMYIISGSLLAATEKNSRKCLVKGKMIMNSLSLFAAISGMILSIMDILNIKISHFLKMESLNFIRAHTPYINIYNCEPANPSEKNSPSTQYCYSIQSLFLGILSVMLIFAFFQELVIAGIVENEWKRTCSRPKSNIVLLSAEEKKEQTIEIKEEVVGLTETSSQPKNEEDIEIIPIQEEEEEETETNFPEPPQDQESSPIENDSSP

[2] = target: T1, human CD20 on cells; assay: indirect FACS, FITC-GAH Fc, SU-DHL-6 cells; none 4.6
[3] = target: T1, human CD20 on cells; assay: indirect flow cytometry, FITC-GAH Fc, SU-DHL-6 cells; none 4.6
[4] = target: T1, human CD20 on cells; assay: indirect flow cytometry, FITC-GAH Fc, Ramos cells; none 3.1
[5] = target: T1, human CD20 on cells; assay: indirect flow cytometry, FITC-GAH Fc, Daudi cells; none 3.2
[6] = target: T1, human CD20 on cells; assay: indirect flow cytometry, Namalwa cells, FITC-GAH; none 2.52
[7] = target: T1, human CD20 on cells; assay: indirect FACS, FITC-GAH Fc, Raji cells; none 6.8
[8] = target: T1, human CD20 on cells; assay: indirect FACS, FITC-GAH Fc, WSU-FSCCL cells; none 2.6
[9] = target: T1, human CD20 on cells; assay: indirect FACS, FITC-GAH Fc, Ramos cells; none 3.1
[10] = target: T1, human CD20 on cells; assay: indirect flow cytometry, FITC-GAH Fc, Raji cells; none 6.9
[11] = target: T1, human CD20 on cells; assay: indirect FACS, FITC-GAH Fc, Namalwa cells; none 2.5
[12] = target: T1, human CD20 on cells; assay: indirect flow cytometry, FITC-GAH Fc, RL cells; none 2.4
[13] = target: T1, human CD20 on cells; assay: indirect flow cytometry, FITC-GAH Fc, Namalwa cells; none 2.6
[14] = target: T1, human CD20 on cells; assay: indirect flow cytometry, FITC-GAH Fc, WSU-FSCCL cells; none 2.7
[15] = target: T2, human leukocyte antigen-DR (HLA-DR) on human lymphoma and leukemia cell lines and human lymphocytes (human); assay: indirect FACS, FITC-GAH Fc, Daudi cells; none 3.1
[16] = target: T2, human leukocyte antigen-DR (HLA-DR) on …; assay: indirect FACS, FITC-GAH Fc, SU-DHL-6 cells; none 4.6
[17] = target: T2, human leukocyte antigen-DR (HLA-DR) on …; assay: indirect flow cytometry, FITC-GAH Fc, SU-DHL-6 cells; none 4.6
[18] = target: T2, human leukocyte antigen-DR (HLA-DR) on …; assay: indirect flow cytometry, FITC-GAH Fc, Ramos cells; none 3.1
[19] = target: T2, human leukocyte antigen-DR (HLA-DR) on …; assay: indirect flow cytometry, FITC-GAH Fc, Daudi cells; none 3.2
[20] = target: T2, human leukocyte antigen-DR (HLA-DR) on …; assay: indirect flow cytometry, Namalwa cells, FITC-GAH; none 2.52
[21] = target: T2, human leukocyte antigen-DR (HLA-DR) on …; assay: indirect FACS, FITC-GAH Fc, Raji cells; none 6.8
[22] = target: T2, human leukocyte antigen-DR (HLA-DR) on …; assay: indirect FACS, FITC-GAH Fc, WSU-FSCCL cells; none 2.6
[23] = target: T2, human leukocyte antigen-DR (HLA-DR) on …; assay: indirect FACS, FITC-GAH Fc, Ramos cells; none 3.1
[24] = target: T2, human leukocyte antigen-DR (HLA-DR) on …; assay: indirect flow cytometry, FITC-GAH Fc, Raji cells; none 6.9
[25] = target: T2, human leukocyte antigen-DR (HLA-DR) on …; assay: indirect FACS, FITC-GAH Fc, Namalwa cells; none 2.5
[26] = target: T2, human leukocyte antigen-DR (HLA-DR) on …; assay: indirect flow cytometry, FITC-GAH Fc, RL cells; none 2.4
[27] = target: T2, human leukocyte antigen-DR (HLA-DR) on …; assay: indirect flow cytometry, FITC-GAH Fc, Namalwa cells; none 2.6
[28] = target: T2, human leukocyte antigen-DR (HLA-DR) on …; assay: indirect flow cytometry, FITC-GAH Fc, WSU-FSCCL cells; none 2.7

Geometric Mean Fluorescence [1]: 241
Geometric Mean Fluorescence [2]: 1200
Geometric Mean Fluorescence [3]: 1200
Geometric Mean Fluorescence [4]: 204
Geometric Mean Fluorescence [5]: 241
GEO MEAN Fluorescence [6]: 6.28
Geometric Mean Fluorescence [7]: 267
Geometric Mean Fluorescence [8]: 8.91
Geometric Mean Fluorescence [9]: 204
Geometric Mean Fluorescence [10]: 267
Geometric Mean Fluorescence [11]: 10.1
Geometric Mean Fluorescence [12]: 128
Geometric Mean Fluorescence [13]: 10.1
Geometric Mean Fluorescence [14]: 8.9
B1: veltuzumab (hA20, humanized anti-CD20 mAb) (antibody, V domains shown)
VH: QVQLQQSGAEVKKPGSSVKVSCKASGYTFTSYNMHWVKQAPGQGLEWIGAIYPGMGDTSYNQKFKGKATLTADESTNTAYMELSSLRSEDTAFYYCARSTYYGGDWYFDVWGQGTTVTVSS
VL: DIQLTQSPSSLSASVGDRVTMTCRASSSVSYIHWFQQKPGKAPKPWIYATSNLASGVPVRFSGSGSGTDYTFTISSLQPEDIATYYCQQWTSNPPTFGGGTKLEIK

Geometric Mean Fluorescence [15]: 937
Geometric Mean Fluorescence [16]: 572
Geometric Mean Fluorescence [17]: 572
Geometric Mean Fluorescence [18]: 278
Geometric Mean Fluorescence [19]: 937
GEO MEAN Fluorescence [20]: 324
Geometric Mean Fluorescence [21]: 972
Geometric Mean Fluorescence [22]: 467
Geometric Mean Fluorescence [23]: 278
Geometric Mean Fluorescence [24]: 972
Geometric Mean Fluorescence [25]: 261
Geometric Mean Fluorescence [26]: 112
Geometric Mean Fluorescence [27]: 261
Geometric Mean Fluorescence [28]: 467
B2: hL243γ4P (humanized L243, IgG4/K isotype with hinge mutation Ser241Pro) (antibody, V domains shown)
VH: QVQLQQSGSELKKPGASVKVSCKASGFTFTNYGMNWVKQAPGQGLKWMGWINTYTREPTYADDFKGRFAFSLDTSVSTAYLQISSLKADDTAVYFCARDITAVVPTGFDYWGQGSLVTVSS
VL: DIQLTQSPSSLSASVGDRVTITCRASENIYSNLAWYRQKPGKAPKLLVFAASNLADGVPSRFSGSGSGTDYTFTISSLQPEDIATYYCQHFWTTPWAFGGGTKLQIKR
notes: Same V domains as hL243; human γ4 constant region with Ser241Pro (Kabat numbering) in the hinge, human kappa; also called hL243 (IgG4 isotype)
